Target: T1, Native purified human beta2-glycoprotein I (β2GPI) (human, UniProt P02749 20-345)
T1 sequence (looked up): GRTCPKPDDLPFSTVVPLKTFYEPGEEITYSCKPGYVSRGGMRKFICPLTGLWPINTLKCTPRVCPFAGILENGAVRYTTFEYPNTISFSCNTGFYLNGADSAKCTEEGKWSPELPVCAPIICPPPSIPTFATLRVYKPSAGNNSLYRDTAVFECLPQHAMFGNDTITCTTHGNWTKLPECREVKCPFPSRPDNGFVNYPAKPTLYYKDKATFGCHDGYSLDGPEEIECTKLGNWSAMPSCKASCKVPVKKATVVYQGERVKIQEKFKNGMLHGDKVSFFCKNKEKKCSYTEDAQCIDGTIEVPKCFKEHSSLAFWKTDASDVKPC
Experiment: ELISA

binding result: binds
B1: MBP-Ro60 aa 82–244 (domain or fragment)
chain: not shown
modifications: biotin (Sulfo-NHS-Biotin)

— article PMC3129650 (Journal of immunology (Baltimore, Md. : 1950), 2011)
